In patent JP2023550785A (dated 2023):

How the values were obtained:
[1] = target: T1, MERS-CoV (London1/2012) prefusion-stabilized spike (S) protein / S ectodomain trimer (MERS-CoV (London1/2012), UniProt K9N5Q8 18-1296)
T1 sequence: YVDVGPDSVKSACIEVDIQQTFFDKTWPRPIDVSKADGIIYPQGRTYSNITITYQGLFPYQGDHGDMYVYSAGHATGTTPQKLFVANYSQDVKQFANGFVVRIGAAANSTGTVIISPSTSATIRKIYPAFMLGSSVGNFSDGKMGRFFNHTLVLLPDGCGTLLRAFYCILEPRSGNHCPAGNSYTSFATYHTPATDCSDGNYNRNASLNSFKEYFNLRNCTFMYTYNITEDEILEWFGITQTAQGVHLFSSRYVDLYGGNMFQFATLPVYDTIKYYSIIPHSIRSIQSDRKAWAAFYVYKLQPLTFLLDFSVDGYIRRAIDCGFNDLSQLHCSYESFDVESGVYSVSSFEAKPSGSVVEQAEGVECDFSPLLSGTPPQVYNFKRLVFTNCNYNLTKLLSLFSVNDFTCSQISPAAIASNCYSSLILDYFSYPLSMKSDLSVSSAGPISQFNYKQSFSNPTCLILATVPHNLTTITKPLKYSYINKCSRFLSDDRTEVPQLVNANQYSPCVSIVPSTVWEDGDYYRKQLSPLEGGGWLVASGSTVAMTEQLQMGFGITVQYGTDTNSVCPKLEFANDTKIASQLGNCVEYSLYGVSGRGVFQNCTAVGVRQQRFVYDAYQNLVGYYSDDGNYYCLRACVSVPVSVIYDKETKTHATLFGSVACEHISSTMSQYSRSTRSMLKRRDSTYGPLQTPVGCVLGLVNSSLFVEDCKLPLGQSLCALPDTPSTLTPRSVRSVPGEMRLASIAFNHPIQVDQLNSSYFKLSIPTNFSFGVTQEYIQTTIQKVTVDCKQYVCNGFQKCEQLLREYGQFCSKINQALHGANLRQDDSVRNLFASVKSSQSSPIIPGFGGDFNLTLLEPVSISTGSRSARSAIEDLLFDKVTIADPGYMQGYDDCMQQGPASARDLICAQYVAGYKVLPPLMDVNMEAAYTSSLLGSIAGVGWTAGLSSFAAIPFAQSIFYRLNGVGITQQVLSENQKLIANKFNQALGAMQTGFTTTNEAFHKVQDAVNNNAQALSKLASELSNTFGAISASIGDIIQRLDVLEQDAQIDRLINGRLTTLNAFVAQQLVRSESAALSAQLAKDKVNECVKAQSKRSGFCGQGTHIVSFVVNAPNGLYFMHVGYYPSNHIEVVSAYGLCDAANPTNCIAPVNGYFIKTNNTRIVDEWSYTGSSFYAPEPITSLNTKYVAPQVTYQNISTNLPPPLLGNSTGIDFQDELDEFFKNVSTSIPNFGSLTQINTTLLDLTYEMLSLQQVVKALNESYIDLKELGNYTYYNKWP

[2] = target: T2, spike protein of alphacoronavirus 229E-CoV (HCoV-229E, UniProt P15423 16-1115); assay: ELISA on alphacoronavirus spike proteins (Fig 37)
T2 sequence: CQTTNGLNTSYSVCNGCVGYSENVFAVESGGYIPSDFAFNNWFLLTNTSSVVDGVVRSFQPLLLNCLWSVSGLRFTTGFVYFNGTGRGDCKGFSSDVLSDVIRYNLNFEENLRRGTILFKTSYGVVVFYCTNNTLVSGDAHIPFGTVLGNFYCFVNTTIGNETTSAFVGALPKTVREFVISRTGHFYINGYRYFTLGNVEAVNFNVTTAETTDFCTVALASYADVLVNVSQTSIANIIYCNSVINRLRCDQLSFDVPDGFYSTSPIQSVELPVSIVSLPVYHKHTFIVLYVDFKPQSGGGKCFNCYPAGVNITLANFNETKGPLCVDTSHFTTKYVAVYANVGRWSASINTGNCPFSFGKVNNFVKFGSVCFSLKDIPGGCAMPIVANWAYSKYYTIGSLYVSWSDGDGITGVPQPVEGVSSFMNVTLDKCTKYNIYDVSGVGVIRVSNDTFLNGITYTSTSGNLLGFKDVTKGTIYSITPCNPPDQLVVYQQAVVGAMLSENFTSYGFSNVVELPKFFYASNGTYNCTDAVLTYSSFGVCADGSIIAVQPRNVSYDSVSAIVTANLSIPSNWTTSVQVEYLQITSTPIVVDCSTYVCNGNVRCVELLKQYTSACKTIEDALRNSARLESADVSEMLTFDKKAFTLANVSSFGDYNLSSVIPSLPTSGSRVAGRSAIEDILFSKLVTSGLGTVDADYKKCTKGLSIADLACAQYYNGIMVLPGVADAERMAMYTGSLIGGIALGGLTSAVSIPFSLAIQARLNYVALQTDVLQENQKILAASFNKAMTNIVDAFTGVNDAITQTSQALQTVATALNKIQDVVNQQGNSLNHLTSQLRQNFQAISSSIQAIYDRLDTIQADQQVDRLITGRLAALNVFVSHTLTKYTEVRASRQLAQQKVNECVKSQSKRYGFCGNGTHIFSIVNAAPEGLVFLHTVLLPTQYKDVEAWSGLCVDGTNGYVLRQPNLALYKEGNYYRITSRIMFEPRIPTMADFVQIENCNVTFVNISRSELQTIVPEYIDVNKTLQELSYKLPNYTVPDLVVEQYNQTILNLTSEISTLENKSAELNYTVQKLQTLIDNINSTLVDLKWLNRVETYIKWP

B1: antibody S2P6 (antibody 420 1 1), human monoclonal antibody expressed as recombinant human IgG1 (antibody, V domains shown)
VH: EVQLVQSGAEVKKPGASVKVSCKASGYTFTSQYMHWVRQAPGQGLEWIGIINPSGVHTSYAQKFQGRVTLTRDTSTSTLYMELSSLRSEDTAVYYCARGSPKGAFDYWGQGTLVTVSS
VL: not shown
With B1 the Kd [1] was 1.14 nM and the binding result [2] was “no binding”.
